{
  "source": "patent US20260158147A1",
  "about": "(published 2026)",
  "binders": {"B1": {"name": "gantenerumab (antibody, V domains shown)", "VH": "QVELVESGGGLVQPGGSLRLSCAASGFTFSSYAMSWVRQAPGKGLEWVSAINASGTRTYYADSVKGRFTISRDNSKNTLYLQMNSLRAEDTAVYYCARGKGNTHKPYGYVRYFDVWGQGTLVTVSS", "VL": "DIVLTQSPATLSLSPGERATLSCRASQSVSSSYLAWYQQKPGQAPRLLIYGASSRATGVPARFSGSGSGTDFTLTISSLEPEDFATYYCLQIYNMPITFGQGTKVEIK"}},
  "molecular_target": "Pre-formed aBeta fibrils (UniProt P05067 672-713)",
  "assay": "ELISA",
  "data": [
    {"binder": "B1", "values": [
      {"measurement": "EC50", "result": 0.702, "unit": "nM"}
    ]}
  ]
}
